# Results from patent publication US20060167220A1, “Methods and compositions for preparing peptides with excellent solubility characteristics in aqueous solution at physiological pH” (priority 2004, published 2006).
# Test: Dissolution test of peptide sample (pH raised stepwise with NaOH until dissolved)
# Assay type: physicochemical
# Experimental: For example, a simple dissolution test can be used to evaluate the solubility characteristics of a peptide sample. The test is conveniently carried out at a temperature in the range of from about 20° C. to about 27° C., preferably about 25° C. From about 0.1 to about 0.3 grams of peptide is combined with about 1 to about 3 ml of an aqueous medium. The medium may be deionized water. In the case of T-20 or T-1249, these peptides are mildly acidic. Consequently, the medium optionally may include some initial amount base, e.g., about 17 mM Na2CO3 or the like, to provide a suitable initial pH. […] The mixture is rapidly stirred for 5 to 10 minutes between additional increments. Solids adhering to the sides of the testing vessel should be re-suspended. Rapid mixing should be maintained throughout. Results include observations regarding the clarity of the mixture, time required for dissolution, concentration and amount of caustic used, final pH upon dissolution (if this occurs below pH 9), and the like.
# For purposes of the invention, peptides such as T-20, T-1249, and GLP-1, as well as counterparts of these, may be deemed to be in a more desired, deaggregated form if dissolution in accordance with this test occurs at a pH of less than about 8, preferably less than about 7.5. If dissolution occurs at a pH of greater than about 7.5, more preferably greater than about 8, the peptide is deemed to be in a less desired aggregated form. This helps to ensure the practicality of handling the peptide during subsequent processing and handling.
# [1] = precipitated with 18% by volume acetonitrile
substance,measurement,setting,value
"Acetyl-WQEWEQKITALLEQAQIQQE KNEYELQKLDKWASLWEWF-NH2 (Ac-WQEWEQKITALLEQAQIQQEKNEYELQKLDKWASLWEWF-NH2) [Sample T-1249, ID NO; 20]",Dissolution behavior,precipitated with 14% by volume acetonitrile,dissolved to some degree at a pH of 6.95 but not completely
same,Dissolution time,[1],1 h
same,Final pH at dissolution,[1],6.69
same,Turbidity in words,[1],only very faint turbidity
same,Dissolution pH,precipitated with 20 to 22 volume percent acetonitrile,around 9
same,Dissolution behavior,precipitated with no co-solvent,dissolved very slowly with high turbidity even after 14 to 18 hours and even at a pH of 8
